For one molecule, Kd and prothrombin time (PT) in citrated human plasma, maximal fold prolongation over normal clotting time results are on record in PMC5118791.

In assay [1] the target is recombinant Factor VIIa (rFVIIa). Kind of assay: BLI; Octet Red, Ni-NTA biosensors, 37 °C, 1000 rpm; association 180 sec, dissociation 10 min; 1:1 model, global fit; the legend of Figure 4b says rFVIIa was immobilised.
The target is the same in assay [2].

Usually Kd stands for the free concentration of one partner at which half of the binding sites on the other are occupied at equilibrium, for simple one-to-one binding.

Sequence of recombinant Factor VIIa (rFVIIa) (P08709 whole entry): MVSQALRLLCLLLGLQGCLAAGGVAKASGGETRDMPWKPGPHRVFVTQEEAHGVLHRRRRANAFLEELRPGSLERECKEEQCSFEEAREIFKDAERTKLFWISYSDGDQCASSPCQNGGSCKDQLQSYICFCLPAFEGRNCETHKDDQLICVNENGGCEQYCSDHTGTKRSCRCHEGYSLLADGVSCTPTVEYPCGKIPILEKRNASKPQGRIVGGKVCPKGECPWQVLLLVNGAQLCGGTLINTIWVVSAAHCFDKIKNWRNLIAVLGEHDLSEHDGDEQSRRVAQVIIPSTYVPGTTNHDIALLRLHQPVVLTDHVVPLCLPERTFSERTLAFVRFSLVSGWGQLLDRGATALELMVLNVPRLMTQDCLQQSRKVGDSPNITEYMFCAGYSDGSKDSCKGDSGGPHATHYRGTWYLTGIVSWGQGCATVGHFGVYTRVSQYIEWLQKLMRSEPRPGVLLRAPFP

B1: E-76 peptide (peptide)
peptide: ALCDDPRVDRWYCQFVEG
Consider B1, for which the Kd in assay [1] worked out at 6.2 nM. Also, in assay [2], the prothrombin time (PT) in citrated human plasma, maximal fold prolongation over normal clotting time amounted to 3 fold.
